Biological target: S1-His (SARS-CoV-2, UniProt P0DTC2 16-685)

B1: 89C8 (antibody, V domains shown)
VH: QVQLVQSGAEVKKPGSSVKVSCKASGGTFSSYAISWVRQAPGQGLEWMGGIIPILGIANYAQKFQGRVTITADKSTSTAYMELSSLRSEDTAVYYCARGGLGFGELFRKTGYYFDYWGQGTLVTVSS
VL: EIVMTQSPATLSVSPGERATLSCRASQSVSSNLAWYQQKPGQAPRLLIYAASTRATAIPARFSGSGSGTEFTLTISSLQSEDFAVYFCQQYNKLPLTFGGGTKVDIKR
Kd: 7.6 nM
koff: 0.000385 s⁻¹
kon: 50400 M⁻¹ s⁻¹

Source: CN113667016A (PUMISI BIOTECHNOLOGY ZHUHAI CO LTD, dated 2021)
